# The nanobody polyreactivity screen of Harvey et al. (2022)
# Assay: yeast display, Sf9 membrane polyspecificity reagent, FACS + sequencing; frameworks hold sequencing errors
# Summary of the method: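 In a synthetic yeast display library (Saccharomyces cerevisiae BJ5465), nanobody expression was induced with galactose for 36–48 hours. FACS gates were set low and high (top ~1%) using anti-HA fluorescence for expression and streptavidin fluorescence for binding of the Sf9 membrane reagent. Each polyreactivity label is drawn from the gate of origin.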
row,Sequence,polyreactivity (PSR sort gate)
1,QVQLVESGGGLVQAGGSLRLSCAASGRTFRSYAMGWYRQAPGKEREFVAAISRSGASTRYADSVKGRFTISRDNAKNTVYLQMNSLKPEDTAVYYCAKSWRYSINQSYRAGYNYWGQGTQVTVSS,high polyreactivity
2,QVQLVESGGGLVQAGGSLRLSCAASGRTFRSYAMGWYRQAPGKERELVAAISRGGRTNYADSVKGRFTISRDNAKNTVYLQMNSLKPEDTAVYYCAAAQFRSYWAFDYWGQGTQVTVSS,high polyreactivity
3,QVQLVESGGGLVQAGGSLRLSCAASGRTFRSYAMGWYRQAPGKERELVAGISYNGGSTYYADSVKGRFTISRDNAKNTVYLQMNSLKPADTAGYYCAATHHYRLYDYWGQGTQVNVSS,low polyreactivity
4,QVQLVESGGGLVQAGGSLRLSCAASGRTFRSYTMGWYRQAPGKERELVAAISYNGGSTYYADSVKGRFTISRDNAKNTVYLQMNSLKPEDTAVYYCNKDFDGRFDYWGQGTQVTVSS,high polyreactivity
5,QVQLVESGGGLVQAGGSLRLSCAASGRTFRTNAMAWYRQAPGKERELVAAITSDGTYYADSVKGRFTISRDNAKNTVYLQMNSLKPEDTAVYYWNVDDRENRDDYWGQGTQVTVSS,low polyreactivity
6,QVQLVESGGGLVQAGGSLRLSCAASGRTFRTNAMGWYRQAPGKERELVAAISTGGGITNYADSVKGRFTISRDNAKNTVYLQMNSLKPEDTAVYYCNADIYTWFQIGGYQYDYWGQGTQVTVSS,low polyreactivity
7,QVQLVESGGGLVQAGGSLRLSCAASGRTFRTYAMGWYRQAPGKETELVAANSSGGSTNYADSVKGRFTISRDNEKNTVYLQMNSLKPEDTAVYYCATRPTSDFVKRRVYEWLDYWGQGTQVTVSS,low polyreactivity
8,QVQLVESGGGLVQAGGSLRLSCAASGRTFRTYNMGWYRQAPGKERELVAAISYSGGSTYYADSVKGRFTISRDNAKNTVYLQMNSLKPEDNAVYYCNARRYFWGFDYWGQGTQVNVSS,high polyreactivity
9,QVQLVESGGGLVQAGGSLRLSCAASGRTFRVYAKGWYRQAPGKERDFVAAITDSGGRKYYADSVKGRFTISRDNAKHTVYVQMNSLKPEDTAVYYCNAYEYFVRYDTYLFRYDYWGQGTQVTVSS,low polyreactivity
10,QVQLVESGGGLVQAGGSLRLSCAASGRTFRVYAMGWYRQAPGKEREFVAAISYSGGRTYYADSVKGRFTISRDNAKNTVYLQMNSLKPEDTAVYYCAKRVPYGRGVTGYYWGQGTQVTVSS,high polyreactivity
11,QVQLVESGGGLVQAGGSLRLSCAASGRTFRVYAMGWYRQAPGKERELVASITRGGGTYADSVKGRFTISRDNAKNTVSLQMNSLKPEDTAVYYCNADSRRRRIHYDYWGQGTQVTVSS,high polyreactivity
12,QVQLVESGGGLVQAGGSLRLSCAASGRTFRVYSMGWYRQAPGKERDFVAAITDSGGRTYYADSVKGRFTISRDNAKNTVYLQMNCLKPEDTAVYYCNAYQYYERYDTYLFRYDYWGQGTQVTVSS,low polyreactivity
13,QVQLVESGGGLVQAGGSLRLSCAASGRTFRWNAMGWYRQAPGKERELVAAISSGGSTYYADSVKGRFTISRDNAKNTVYFQMNSLKPEDTAVYYCNKYYVRAYDTQEYDYWGQGTQVTVSS,high polyreactivity
14,QVQLVESGGGLVQAGGSLRLSCAASGRTFRWYAMGWYRQAPGKERELVAAISQSGGSTYYADSVKGRFTISRDNAKNSVYLQMNSLKPVDTAVYYCAKVTYRGYYSWGQGTQLTVSS,high polyreactivity
15,QVQLVESGGGLVQAGGSLRLSCAASGRTFRWYAMGWYRQAPGKERELVADISSVGSTDYADSVKGRFTISRDNAKNTVYLQMNSLKPEDTAVYYCAADFSPRRYHNRSFGYWGQGTQVTVSS,low polyreactivity
16,QVQLVESGGGLVQAGGSLRLSCAASGRTFRWYAMGWYRQAPGKERELVATITSGGSTNYADSVKGRFTISRDNAKNSVYLQMNSLKPEDTAVYYCAAWSYAYYYRLRYVSHDYWGQGTQVTVSS,high polyreactivity

row,Sequence,polyreactivity (PSR sort gate)
1,QVQLVESGGGLVQAGGSLRLSCAASGRTFRWYTLGWYRQAPGKERELVAAITSRGGSTYADSVKGRFTISRDNAKNTVYLQMNSLKPEDTAVYYCNAARTYQYDYWGQGTQVTVSS,high polyreactivity
2,QVQLVESGGGLVQAGGSLRLSCAASGRTFRYNAMGWYRQAPGKERELVAAIRYSGGRTYADSVKGRFTISRDNAKNTVYLQMNSLKPEDTAVYYCNADSIRRGYRYDYWGQGTQVTVSS,high polyreactivity
3,QVQLVESGGGLVQAGGSLRLSCAASGRTFRYNAMGWYRQAPGKERELVAAISASGGSTYYADSVKGRFTISRDNAKNTVYLQMNSLKPEDTAVYYCATYYRVGYDYWGQGTQVTVSS,high polyreactivity
4,QVQLVESGGGLVQAGGSLRLSCAASGRTFRYNAMGWYRQAPGKERELVAAISGSGGITYYADSVKGRFTISRDNAKNTVYLQMNSLKPEDTAVYYCAAVYRYNSDPDYDYWGQGTQVTVSS,high polyreactivity
5,QVQLVESGGGLVQAGGSLRLSCAASGRTFRYNAMGWYRQAPGKERELVAAITWSGGSTYYADSVKGRFTISRDNAKNTVYLQMNSLKPEDTAVYYCAKGRRRSHPYDYWGQGTQVTVSS,high polyreactivity
6,QVQLVESGGGLVQAGGSLRLSCAASGRTFRYNAMGWYRQAPGKERELVARISRGGSTYADSVKGRFTISRDNAKNTVYLQMNSLKPEDTAVYYCAAYPTKHNQSEYYYWGQGTQVTVSS,low polyreactivity
7,QVQLVESGGGLVQAGGSLRLSCAASGRTFRYNAMGWYRQAPGKERELVASIRYSSASTYYADSVKGRFTISRDNAKNTVYLQMNSLKPVDTAVYYCAASWYPVFVGYDYWGQGTQVTVSS,high polyreactivity
8,QVQLVESGGGLVQAGGSLRLSCAASGRTFRYNTMGWYRQAPGKERELVAAITWSGGRTYYADSVKGRFTISRDNAKNTVYLQMNSLNPEDTAVYYCNADVPYSRSIYGFYYWGQGTQVTVSS,high polyreactivity
9,QVQLVESGGGLVQAGGSLRLSCAASGRTFRYYAMGWYRQAPGKEREFVAAITKRGGSTYYADSVKGRFTISRDNAKNTVYLQMNSLKAEDTAVYYCAADTSTWAHTRGYDYWGQGTQVTVSS,high polyreactivity
10,QVQLVESGGGLVQAGGSLRLSCAASGRTFRYYAMGWYRQAPGKEREFVAAITRSAVSTYYADSVKGRFTISRDNAKNTVYLQMNSLKPEDTAIYYCAVDSSLVKVGFDYWGQGTQVTVSS,high polyreactivity
11,QVQLVESGGGLVQAGGSLRLSCAASGRTFRYYAMGWYRQAPGKEREFVASIRRGGGSTYYADSVKGRFTISRDNAKNTVYLQMNSLKPEDTAVYYCAAQPYTLSLFRLNYDYWGQGTQVTVSS,low polyreactivity
12,QVQLVESGGGLVQAGGSLRLSCAASGRTFRYYAMGWYRQAPGKERELVAAISRGDSTHYADSVKGRFTISRDNAKNTVYLQMNSLKPEDTAVDYCAAYRGRSVDRQPYYCGQGTQVTVSS,high polyreactivity
13,QVQLVESGGGLVQAGGSLRLSCAASGRTFRYYAMGWYRQAPGKERELVAAISSGGRTNYADSVKGRFTISRDNAKNTVYLQMNSLKPEDTAVYYCAARNTRFWYQNNLYDYWGQGTQVTVSS,high polyreactivity
14,QVQLVESGGGLVQAGGSLRLSCAASGRTFRYYAMGWYRQAPGKERELVAAISWNGANTYYADSVKGRFTISRDNAKNTVYLQMNSLKPEDTAVYYCAANYYRWKGYDYWGQGTQVTVSS,high polyreactivity
15,QVQLVESGGGLVQAGGSLRLSCAASGRTFRYYAMGWYRQAPGKERELVAAITSADSTNYADSVKGRFTISRDNAKNTVYLQMNSLKPEDTAVYYCAAGYVYQAAAKYGRIFWGYDSWGQGSQVTVSS,low polyreactivity
16,QVQLVESGGGLVQAGGSLRLSCAASGRTFRYYAMGWYRQAPGKERELVATISKSGGSTYYADSVKGRFTISRDNAKNTVYLQMNSLKPVDTAVYYCAAVGPYRWYDYWGQGTQVTVSS,high polyreactivity
